Read-outs that look alike come from different tables or passages of the source.

A word on the EC50 (read off the curve): it is the midpoint of the concentration-response curve.

Experiment [1] has as its target T1, erythropoietin receptor on TF-1 cells (UniProt P19235 25-508, limits assumed).
T1 sequence (looked up): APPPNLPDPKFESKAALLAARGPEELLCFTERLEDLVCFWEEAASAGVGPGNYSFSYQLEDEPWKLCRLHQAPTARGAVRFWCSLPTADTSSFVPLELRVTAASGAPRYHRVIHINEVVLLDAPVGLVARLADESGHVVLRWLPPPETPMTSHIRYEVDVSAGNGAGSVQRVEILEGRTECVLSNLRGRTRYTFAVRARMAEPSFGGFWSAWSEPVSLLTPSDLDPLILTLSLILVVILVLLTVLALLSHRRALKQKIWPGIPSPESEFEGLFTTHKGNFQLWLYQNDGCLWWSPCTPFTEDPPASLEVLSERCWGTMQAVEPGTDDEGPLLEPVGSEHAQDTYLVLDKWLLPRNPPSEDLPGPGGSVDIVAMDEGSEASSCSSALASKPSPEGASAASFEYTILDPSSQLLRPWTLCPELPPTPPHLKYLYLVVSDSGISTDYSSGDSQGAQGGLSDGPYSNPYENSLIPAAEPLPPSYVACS

Experiment [2] concerns the target T1, erythropoietin receptor on TF-1 cells. This is another data set of the same source.
The target is the same in experiment [3]. This is another data set of the same source.
The target is the same in experiment [4]. In words: cell-based or functional assay.
Experiment [5] has the same target. Description: cell-based or functional assay. This is another data set of the same source.
Experiment [6] has the same target. In words: cell-based or functional assay. This is another data set of the same source.
For experiment [7] the target is unchanged. Description: cell-based or functional assay. This is another data set of the same source.

Consider R131 (ligand), for which the Relative activity compared to wt fEPO (TF-1 proliferation) in experiment [1] stood at 0.8 X.

In the case of K116 (ligand), the Relative activity compared to wt fEPO (TF-1 proliferation) in experiment [1] came out at 0.7 X.

In experiment [1], R76 (ligand) yielded a Relative activity compared to wt fEPO (TF-1 proliferation) of 0.6 X. This molecule also had a fold less active than WT (TF-1 proliferation, EC 50 ng/ml) in experiment [2] of 1.6 x.

Y49 (ligand) came in with a Relative activity compared to wt fEPO (TF-1 proliferation) in experiment [1] of 2.6 X.

With R53 (ligand), in experiment [1], the Relative activity compared to wt fEPO (TF-1 proliferation) came out at 1.6 X.

Take E31 (ligand): the Relative activity compared to wt fEPO (TF-1 proliferation) in experiment [1] was found to be 1.4 X.

As to F133 (ligand), in experiment [1], the Relative activity compared to wt fEPO (TF-1 proliferation) stood at 2.2 X.

For the molecule E37 (ligand), in experiment [1], the EC50 (read off the curve) was 3 ng/mL and the Relative activity compared to wt fEPO (TF-1 proliferation) turned out to be 1.2 X.

As to E21 (ligand), in experiment [1], the Relative activity compared to wt fEPO (TF-1 proliferation) was 3.1 X.

As to S36 (ligand), the Relative activity compared to wt fEPO (TF-1 proliferation) in experiment [1] worked out at 0.9 X.

Consider L130 (ligand), for which the Relative activity compared to wt fEPO (TF-1 proliferation) in experiment [1] was found to be 2.6 X.

The molecule S120 (ligand) had a Relative activity compared to wt fEPO (TF-1 proliferation) in experiment [1] of 1.6 X.

Molecule D55 (ligand) returned a Relative activity compared to wt fEPO (TF-1 proliferation) in experiment [1] of 1.4 X.

A128 (ligand) showed a Relative activity compared to wt fEPO (TF-1 proliferation) in experiment [1] of 1.4 X. This molecule gave a fold more active than WT (TF-1 proliferation, EC 50 ng/ml) in experiment [2] of 1.4 x.

R163 (ligand) had a Relative activity compared to wt fEPO (TF-1 proliferation) in experiment [1] of 1.1 X.

In experiment [1], P129 (ligand) registered a Relative activity compared to wt fEPO (TF-1 proliferation) of 0.9 X.

For T132 (ligand), the Relative activity compared to wt fEPO (TF-1 proliferation) in experiment [1] amounted to 3.2 X.

Molecule E72 (ligand) came in with a Relative activity compared to wt fEPO (TF-1 proliferation) in experiment [1] of 1.2 X. In experiment [3], this molecule returned an EC50 (TF-1 proliferation, 450nm; stored 5 weeks at +4 degrees C) of 2.1 ng/mL and an EC50 (TF-1 proliferation, 450nm; stored 5 weeks at -80 degrees C) of 2.1 ng/mL.

B1: wild type feline erythropoietin (fEPO) (ligand)
chain: APPRLICDSRVLERYILEAREAENVTMGCAEGCSFSENITVPDTKVNFYTWKRMDVGQQAVEVWQGLALLSEAILRGQALLANSSQPSETLQLHVDKAVSSLRSLTSLLRALGAQKEATSLPEATSAAPLRTFTVDTLCKLFRIYSNFLRGKLTLYTGEACRRGDR
With B1, the “EC50 (read off the curve)” value in experiment [4] is about 3 ng/mL. Besides, in experiment [5], the “EC50 (TF-1 proliferation, 450nM)” value was 3.2 ng/mL. Besides, in experiment [6], the “EC50 (TF-1 proliferation; Starting [fEPO] 250ng/ml; Theoretical Activity 0.5x, Actual Activity 0.6x)” value came out at 4.7 ng/mL; the “EC50 (TF-1 proliferation; Starting [fEPO] 500ng/ml; Theoretical Activity 1x, Actual Activity 1x)” value turned out to be 2.8 ng/mL; the “EC50 (TF-1 proliferation; Starting [fEPO] 1000ng/ml; Theoretical Activity 2x, Actual Activity 2x)” value worked out at 1.4 ng/mL. Further, the “EC50 (read off the curve)” value in experiment [7] is about 2 ng/mL.

For the origin of these results see patent US20100093608A1 (Eli Lilly, published 2010).
